Measured values taken from paper PMC10069166 (Heliyon, 2023).
Positions count from the first letter of the chain named. Like-named read-outs stand apart in the source and are kept apart here.

B1: 80R_5 antibody (antibody, V domains shown)
VH: EVQLVQSGGGVVQPGKSLRLSCKASGFAFSNYAMHWVRQAPGKGLEWVAVISYDGSYKYYADSVKGRFTISRDNSKNTLYLQMNSLRAEDTAVYYCARDRSYYLDYWGQGTLVTVSS
VL: TTLTQSPATLSLSPGERATLSCKASEDIGTALAWYQQKPGQAPRPLIFDGAILAPGIPDRFSGSGSGTDFTLTISRLEPEDFAVYYCHNVYSWPPTFGQGTKVEVK
B2: 80R_19 antibody (antibody, V domains shown)
VH: B1 VH with K23V, A28D, S30K, N31S, R100N, S101A
VL: B1 VL with K23H, A31N, G50A, I52Q, H88M, N89Q, V90I, Y91H, S92N, T96S
B3: 80R_10 antibody (antibody, V domains shown)
VH: B1 VH with K23V, A28D, S30K, N31S, S56R
VL: TTLTQSPATLSLSPGERATLSCHASEDIGTALAWYQQKPGQAPRPLIFYAAQLAPGIPDRFSGSGSGTDFTLTISRLEPEDFAVYYCFQSWTLPLTFGQGTKVEVK
B4: 80R_21 antibody (antibody, V domains shown)
VH: B1 VH with K23V, A28D, N31K, R100N, S101A
VL: B1 VL with A31N, G50A, H88M, N89Q, V90I, S92N, T96S
B5: 80R antibody (antibody, V domains shown)
VH: B1 VH with K23A, N31S, Y57N
VL: TTLTQSPATLSLSPGERATLSCRASQSVRSNLAWYQQKPGQAPRPLIYDASTRATGIPDRFSGSGSGTDFTLTISRLEPEDFAVYYCQQRSNWPPTFGQGTKVEVK
B6: 80R_23 antibody (antibody, V domains shown)
VH: B1 VH with K23V, A28D, S30K, N31S, R100N, S101A
VL: B1 VL with K23H, A31N, I52Q, H88Q, N89Q, V90I, S92N, T96S
B7: 80R_6 antibody (antibody, V domains shown)
VH: B1 VH with K23T, A28N, N31E
VL: B3 VL with H23K, T30S, A31N, Y49D, S90I, W91Y, L93W, L95P
B8: 80R_18 antibody (antibody, V domains shown)
VH: B1 VH with K23V, A28N, N31E, R100N, S101A
VL: B1 VL with K23Q, A31N, G50A, I52Q, D69Q, H88Q, N89Q, V90I, S92N, T96S
B9: 80R_22 antibody (antibody, V domains shown)
VH: B1 VH with K23V, A28D, S30K, N31S, R100N, S101A
VL: B3 VL with F88A, S90Y, T92S, L95P
B10: 80R_7 antibody (antibody, V domains shown)
VH: B1 VH with K23Q, A28D, S30K, N31S, Y57I, Y59H
VL: B3 VL with H23I, E26Q, Y49D, A50G, Q52I, S66A, F88M, S90T, L95V
B11: 80R_8 antibody (antibody, V domains shown)
VH: B1 VH with K23V, A28D, S30K, S56K
VL: B1 VL with K23I, E26Q, A31N, S66A, H88Q, N89Q, V90T, S92N

What was measured:
Test in all cases: BLI
[1] = biological target: Wuhan S6P SARS-CoV-2 full length spike trimer (SARS-CoV-2, Wuhan, UniProt P0DTC2, stabilised)
[2] = biological target: Wild-type SARS-CoV-2 full length spike trimer (SARS-CoV-2, wild type (Wuhan-Hu-1), UniProt P0DTC2)
[3] = biological target: T1, SARS-CoV-2 B.1.617.2 Spike S1+S2 trimer (ECD, His tag) (SARS-CoV-2, Delta (B.1.617.2), L452R | T478K)
[4] = biological target: SARS-CoV-2 Spike Trimer, His Tag (BA.5/Omicron) (SARS-CoV-2, Omicron BA.5, strain)
[5] = biological target: T1, SARS-CoV-2 B.1.617.2 Spike S1+S2 trimer …; remark: listed apart in the source

| Binder | Kd [2] | other results |
| --- | --- | --- |
| B1 | 0.468 nM | Kd [1]: < 1 pM; Kd [3]: 0.443 nM; Kd [4]: 1.12 nM; Kd [5]: 0.441 nM |
| B2 | 0.845 nM |  |
| B3 | 1.82 nM |  |
| B4 | 3.1 nM |  |
| B5 |  | binding result [2]: no binding |
| B6 | 0.858 nM | Kd [3]: 0.625 nM |
| B7 | 4.16 nM |  |
| B8 | 2.68 nM |  |
| B9 | 1.39 nM |  |
| B10 | 2.85 nM |  |
| B11 | 114 nM |  |
